T1: hiR2-FL-T519A-T7 (human, UniProt Q6PJF5 1-856)
T1 sequence: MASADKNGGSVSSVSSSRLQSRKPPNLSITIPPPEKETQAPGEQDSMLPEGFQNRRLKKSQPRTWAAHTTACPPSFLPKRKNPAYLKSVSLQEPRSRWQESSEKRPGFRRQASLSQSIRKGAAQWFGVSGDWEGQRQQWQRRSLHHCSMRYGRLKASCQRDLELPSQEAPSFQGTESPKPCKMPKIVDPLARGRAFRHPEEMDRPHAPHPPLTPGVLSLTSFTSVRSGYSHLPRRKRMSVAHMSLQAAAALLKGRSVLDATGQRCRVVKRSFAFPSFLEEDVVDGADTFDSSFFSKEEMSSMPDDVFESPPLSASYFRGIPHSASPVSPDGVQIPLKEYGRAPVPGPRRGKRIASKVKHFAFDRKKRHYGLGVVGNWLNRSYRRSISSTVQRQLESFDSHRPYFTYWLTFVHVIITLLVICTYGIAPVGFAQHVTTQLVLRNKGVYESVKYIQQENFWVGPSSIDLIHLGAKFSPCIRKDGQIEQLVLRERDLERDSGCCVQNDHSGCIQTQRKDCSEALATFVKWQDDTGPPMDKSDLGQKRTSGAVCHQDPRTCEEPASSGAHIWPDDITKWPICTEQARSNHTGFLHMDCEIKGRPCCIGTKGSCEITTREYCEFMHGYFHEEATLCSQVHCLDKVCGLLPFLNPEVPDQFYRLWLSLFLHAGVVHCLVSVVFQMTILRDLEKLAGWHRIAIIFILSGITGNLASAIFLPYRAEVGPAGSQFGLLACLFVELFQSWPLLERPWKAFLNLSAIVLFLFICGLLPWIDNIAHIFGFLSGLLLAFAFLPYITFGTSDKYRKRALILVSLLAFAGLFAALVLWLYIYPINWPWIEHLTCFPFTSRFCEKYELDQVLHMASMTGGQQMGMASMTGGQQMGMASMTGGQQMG

T2: hiR2-FL-T522A-T7 (human, UniProt Q6PJF5 1-856)
T2 sequence: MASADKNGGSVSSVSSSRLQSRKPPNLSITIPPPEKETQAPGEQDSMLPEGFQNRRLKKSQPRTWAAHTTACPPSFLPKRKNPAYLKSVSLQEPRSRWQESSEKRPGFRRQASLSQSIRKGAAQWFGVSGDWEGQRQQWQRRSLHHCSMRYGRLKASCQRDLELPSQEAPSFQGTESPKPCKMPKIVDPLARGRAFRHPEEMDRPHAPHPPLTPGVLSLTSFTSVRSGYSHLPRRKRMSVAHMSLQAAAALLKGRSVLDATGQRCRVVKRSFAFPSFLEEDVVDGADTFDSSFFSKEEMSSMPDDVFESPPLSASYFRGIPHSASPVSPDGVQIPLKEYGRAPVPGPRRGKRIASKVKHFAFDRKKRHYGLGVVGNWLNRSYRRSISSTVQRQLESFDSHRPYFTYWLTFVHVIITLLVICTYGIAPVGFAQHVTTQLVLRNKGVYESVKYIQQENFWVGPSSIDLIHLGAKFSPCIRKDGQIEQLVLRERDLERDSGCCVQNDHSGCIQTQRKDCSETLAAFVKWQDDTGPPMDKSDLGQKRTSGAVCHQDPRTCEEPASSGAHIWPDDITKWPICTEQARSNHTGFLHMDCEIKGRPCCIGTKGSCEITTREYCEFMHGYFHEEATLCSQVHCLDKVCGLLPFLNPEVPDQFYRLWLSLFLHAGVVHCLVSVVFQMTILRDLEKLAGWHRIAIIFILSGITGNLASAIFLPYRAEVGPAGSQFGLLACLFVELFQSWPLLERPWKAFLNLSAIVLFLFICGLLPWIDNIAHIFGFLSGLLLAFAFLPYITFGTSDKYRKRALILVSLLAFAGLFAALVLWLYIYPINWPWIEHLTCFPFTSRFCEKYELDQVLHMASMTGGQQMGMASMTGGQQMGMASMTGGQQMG


What was measured:
hiR2-FL-T519A-T7 = target: T1, hiR2-FL-T519A-T7; test: FACS on MEF-DKO cells expressing the variant, 3 µg/ml antibody
Procedure, shortened: (§1)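 Cells were stained with purified antibody at 3 μg/ml in FACS buffer for 1 hour on ice, with buffer-only controls. Bound antibody was detected with PE-conjugated goat anti-mouse IgG F(ab′)2 at 1:100, 1 hour on ice in the dark, followed by flow cytometry.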

hiR2-FL-T522A-T7 = target: T2, hiR2-FL-T522A-T7; test: as above
Procedure, shortened: as §1

Binder | loss of binding vs wild type (hiR2-FL-T519A-T7) | loss of binding vs wild type (hiR2-FL-T522A-T7)
antibody 48 (antibody, V domains shown, mouse IgG, kappa light chain; also called clone #48; purified antibody 48) VH: QVQLQQSGTELVRPGTSVKVSCKASGYAFTNYLIEWVKQRPGQGLEWIGVINPGSGFTKYNEKFKGKATLTADKSSSTVYMHLSSLTSEDSAVYFCARGLYRAMDYWGQGTSVTVSS VL: DIQMTQSPASQSASLGESVTITCLASQTIATWLAWYQQKPGKSPQLLIYGATTLADGVPSRFSGGGSGTKFSFKISSLQAEDFVSYYCQQLYSTPYTFGGGTKLEIK | ≥ 60% | ≥ 30%
antibody 50 (antibody, V domains shown, mouse IgG, kappa light chain; also called clone #50; purified antibody 50) VH: QVQLQQSGAELVRPGASVKVSCKASGYAFSNYLIEWVKQRPGQGLEWIGVINPGSGFTKYNEKFKGKATLTADKSSSTAYMQLSSLTSEDSAVYFCARGLYRAMDYWGQGTSVTVSS VL: DIQMTQSPASQSASLGESVTITCLASQTIGTWLAWYQQKPGKSPQLLIYAAASLADGVPSRFSGGGSGTKFSFKISSLQAEDFVNYYCQQIYSTPYTFGGGTKLEIK | ≥ 60% | ≥ 30%

— patent US20240287172A1 (SCIRHOM, published 2024)
